Measured values reported in publication PMC1435831.
Like-named read-outs stand apart in the source and are kept apart here.

What was measured:
[1] = target: His-tagged SmpB protein (small protein B), wild type (E. coli) (UniProt P0A832); assay: SPR
[2] = target: His-tagged SmpB protein (small protein B), wild type (E. coli) (UniProt P0A832); assay: SPR; remark: listed apart in the source

Sequence of UniProt P0A832 (P0A832 whole entry): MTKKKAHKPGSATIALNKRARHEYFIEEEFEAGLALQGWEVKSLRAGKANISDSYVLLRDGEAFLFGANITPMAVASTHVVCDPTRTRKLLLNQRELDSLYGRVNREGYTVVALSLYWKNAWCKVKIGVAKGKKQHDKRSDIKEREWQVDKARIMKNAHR

Substance: 30S ribosomal subunit (complex)
- Kd [1]: 4.4 nM
- Kd [2]: 0.17 nM

Substance: 70S ribosome (complex)
- Kd [1]: 7.3 nM

Substance: 50S ribosomal subunit (complex)
- Kd [1]: 4.8 nM
- Kd [2]: 0.17 nM
